Key:
Type in all cases: cell-based, Saccharomyces cerevisiae
SQ strain [1] = experiment: Squalene production and secretion by SQ strains transformed with tSPF fused to a secretion signal sequence (HPLC of cell lysate and dodecane layer); settings: for Intracellular (mg/L) / Intracellular (mg/g): squalene in cells; for Extracellular: squalene in dodecane layer
Protocol: The SQ strains transformed with the pSEC-Suc2-tSPF, pSEC-Pho5-tSPF, and pSEC-MFα-tSPF expression vectors were cultured in flask ([…]) containing 50 mL of minimal medium (e.g., YSC medium; 0.67% (w/v) yeast nitrogen base without amino acids (BD Difco, USA), 0.19% (w/v) yeast synthetic drop-out medium supplements without uracil (Sigma-Aldrich, USA)) while stirring at 250 rpm at 30° C.
After culturing for 72 hours and 144 hours, the culture was centrifuged at 4,000 rpm to be separated into cells, a culture supernatant, and a dodecane layer. Then, the concentration of squalene in the separated cells and dodecane layer was measured. To measure the squalene concentration in the cells, the cells were resuspended in 600 μL of a mixed solution containing methanol and acetone at 1:1, transferred to a tube containing lysing matrix C (glass bead, MP Biomedicals, USA), and then underwent cell lysis by using a FastPrep-24 5G homogenizer (MP Biomedicals, USA). By centrifugation at 13,000 rpm, the lysed cells and intracellular metabolites including squalene dissolved from the lysed cells were separated.
Next, the squalene concentration in the cell lysate was measured. To measure the squalene concentration in the cell lysate, the concentration was measured by using an Agilent HPLC system after filtering the cell lysate through a 0.2 μm syringe filter.
In addition, the dodecane layer separated by centrifugation was also filtered in the same way, and then the squalene concentration was measured by using an HPLC system. […] FIGS. 2A and 2B show the squalene concentrations outside the cells or in the cells, wherein the cells were produced by yeast cells including the polynucleotide encoding tSPF fused to the secretion signal sequence.

SQ strain [2] = experiment: Western blot analysis of cell lysates and culture supernatant of transformed SQ strains (anti-His tag); settings: medium without dodecane layer
Protocol: FIG. 4 is a diagram showing the results of western blot analysis of the cell lysates and the culture supernatant obtained after culturing the SQ strains that were each transformed with the Suc2-tSPF, Pho5-tSPF and MFα-tSPF fusion protein genes. To confirm the extracellular secretion of the tSPF fusion protein, yeast cells were cultured in a flask ([…]) containing 50 mL minimal medium (e.g., YSC medium; 0.67% (w/v) yeast nitrogen base without amino acids (BD Difco, USA), 0.19% (w/v) yeast synthetic drop-out medium supplements without uracil (Sigma-Aldrich, USA)) supplemented with 2% (w/v) glucose while stirring at 30° C. […] To extract intracellular proteins from the cultured yeast cells in an amount corresponding to an OD600 value of 100, the cells were resuspended 1 mL of cell lysis buffer (1 mL RIPA buffer, Thermo Scientific, MA, USA) containing protease inhibitor (1× protease inhibitor cocktail, Roche Diagnostics, Mannheim, Germany). The suspension was homogenized by using a sonicator, for 6 minutes at 20% amplitude and 3 second intervals. The extracellular proteins in the supernatant of the culture medium were added to a solution in which trichloroacetic acid solution was added to 50 mL of the supernatant to account for 25%, and incubated for 30 minutes to precipitate proteins, followed by centrifugation at 4° C. for 40 minutes. The precipitated proteins were washed three times with 1 ml of cold acetone, and then resuspended in 50 μl of sterile water. The resuspended proteins were further concentrated by using 30 kDa am icon ultra centrifugal filters.
The protein samples thus prepared, i.e. the cell lysates, were mixed with 5×SDS sample buffer and separated by 10% SDS-PAGE. The proteins separated on the SDS-PAGE gel were transferred to a PVDF membrane, and blocked by incubation for one day in TBST containing 4% skim milk. The PVDF membrane was reacted with a solution containing primary antibodies at room temperature for 1 hour, and then washed with a TBST solution three times. As the primary antibody, an anti-actin antibody or an anti-His tag antibody was used. The fusion protein included a 6×His tag sequence at the C-terminus. The washed PVDF membrane was reacted again in a solution containing peroxidase-conjugated anti-IgG antibodies at room temperature for 1 hour. The PVDF membrane in which the antibody-conjugated proteins were present was visualized by using the ChemiDoc imaging system.

CEN.PK2-1D yeast cells = experiment: Beta-carotene production and secretion by CEN.PK2-1D yeast cells co-transformed with p415-BC and pSEC-tSPF or pSEC-Suc2-tSPF; settings: for Intracellular (mg/L) / Intracellular (mg/g): beta-carotene in cells; for Extracellular: beta-carotene in dodecane layer
Description: Through the same process as described in Section (1.2) of Example 1, the S. cerevisiae wild strain CEN.PK2-1D was co-transformed with the p415-BC vector manufactured in Section (1.2) and either pSEC-tSPF or pSEC-Suc2-tSPF, to manufacture yeast cells transformed with a vector expressing tSPF fused to a signal peptide.
CEN.PK2-1D yeast cells, which were co-transformed with the p415-BC vector obtained in Section (2.2) and either pSEC-tSPF or pSEC-Suc2-tSPF and were able to overproduce beta-carotene, were cultured for 144 hours under the same conditions as described in Section (1.3) of Example 1. Then, the amount of beta-carotene in the cultured cells and outside the cells was measured. The amount of beta-carotene was measured in the same method as the methods for cell lysis and dodecane layer separation used for the measurement of the squalene concentration. Table 2 and FIG. 6 show the amount of beta-carotene produced by culturing the CEN.PK2-1D yeast cells co-transformed with the p415-BC vector and either pSEC-tSPF or pSEC-Suc2-tSPF.

Molecule | amount of extracellular squalene or extracellular squalene secretion ratio compared to the control cells (SQ strain [1]) | Intracellular (mg/L) (SQ strain [1]; 72 hours) | Intracellular (mg/g) (SQ strain [1]; 72 hours) | Intracellular (mg/L) (SQ strain [1]; 144 hours) | Intracellular (mg/g) (SQ strain [1]; 144 hours) | Extracellular (SQ strain [1]; 72 hours) [mg/L] | Extracellular (SQ strain [1]; 144 hours) [mg/L] | western blot band in cell lysate (SQ strain [2]) | Intracellular (mg/L) (CEN.PK2-1D yeast cells; 144 hours) | Intracellular (mg/g) (CEN.PK2-1D yeast cells; 144 hours) | Extracellular (CEN.PK2-1D yeast cells; 144 hours) [mg/L] | western blot band in culture supernatant (SQ strain [2]; culture supernatant) | amount of extracellular beta-carotene or ratio of extracellular secretion compared to control cells (CEN.PK2-1D yeast cells) | extracellular secretion of beta-carotene, increase compared to the control groups containing the empty vector (CEN.PK2-1D yeast cells; 144 hours)
Pho5-tSPF: fusion protein of Pho5 signal peptide at N-terminus of tSPF (SEQ ID NO: 24), expressed in yeast from pSEC-Pho5-tSPF (protein, Pho5-SPF) MFKSVVYSILAASLANAMEFSGRVGDLSPRQKEALAKFRENVQDVLPALPNPDDYFLLRWLRARSFDLQKSEAMLRKHVEFRKQKDIDNIISWQPPEVIQQYLSGGMCGYDLDGCPVWYDIIGPLDAKGLLFSASKQDLLRTKMRECELLLQECAHQTTKLGRKVETITAIYDCEGLGLKHLWKPAVEAYGEALCMFEENYPETLKRLFVVKAPKLFPVAYNLIKPFLSEDTRKKIMVLGANWKEVLLKHISPDQVPVEYGGTMTDPDGNPKCKSKINYGGDIPRKYYVRDQVK | significant increase | 252.17 | 51.68 | 426.85 | 72.39 | 64.55 | 190.09 | hardly appeared |  |  |  |  |  | 
tSPF: truncated supernatant protein factor, amino acids 1 to 275 of SPF (SEQ ID NO: 2), without secretion signal; control expressed from pSEC-tSPF (protein, truncated SPF) MSGRVGDLSPRQKEALAKFRENVQDVLPALPNPDDYFLLRWLRARSFDLQKSEAMLRKHVEFRKQKDIDNIISWQPPEVIQQYLSGGMCGYDLDGCPVWYDIIGPLDAKGLLFSASKQDLLRTKMRECELLLQECAHQTTKLGRKVETITIIYDCEGLGLKHLWKPAVEAYGEFLCMFEENYPETLKRLFVVKAPKLFPVAYNLIKPFLSEDTRKKIMVLGANWKEVLLKHISPDQVPVEYGGTMTDPDGNPKCKSKINYGGDIPRKYYVRDQVK |  | 401.51 | 55.05 | 485.04 | 59.43 | 3.67 | 13.82 | apparent band | 7.04 | 0.69 | 0.23 | did not appear |  | 
MFα-tSPF: fusion protein of MFα signal peptide at N-terminus of tSPF (SEQ ID NO: 25), expressed in yeast from pSEC-MFα-tSPF (protein, MF-tSPF) MRFPSIFTAVLFAASSALAAPVNTTTEDETAQIPAEAVIGYSDLEGDFDVAVLPFSNSTNNGLLFINTTIASIAAKEEGVSLEKREAEAMEFSGRVGDLSPRQKEALAKFRENVQDVLPALPNPDDYFLLRWLRARSFDLQKSEAMLRKHVEFRKQKDIDNIISWQPPEVIQQYLSGGMCGYDLDGCPVWYDIIGPLDAKGLLFSASKQDLLRTKMRECELLLQECAHQTTKLGRKVETITAIYDCEGLGLKHLWKPAVEAYGEALCMFEENYPETLKRLFVVKAPKLFPVAYNLIKPFLSEDTRKKIMVLGANWKEVLLKHISPDQVPVEYGGTMTDPDGNPKCKSKINYGGDIPRKYYVRDQVK | significant increase | 210.52 | 44.88 | 551.64 | 78.42 | 4.21 | 43.25 |  |  |  |  |  |  | 
Suc2-tSPF: fusion protein of Suc2 signal peptide at N-terminus of tSPF (SEQ ID NO: 23), expressed in yeast from pSEC-Suc2-tSPF (protein, Suc2-tSPF) MLLQAFLFLLAGFAAKISAMEFSGRVGDLSPRQKEALAKFRENVQDVLPALPNPDDYFLLRWLRARSFDLQKSEAMLRKHVEFRKQKDIDNIISWQPPEVIQQYLSGGMCGYDLDGCPVWYDIIGPLDAKGLLFSASKQDLLRTKMRECELLLQECAHQTTKLGRKVETITAIYDCEGLGLKHLWKPAVEAYGEALCMFEENYPETLKRLFVVKAPKLFPVAYNLIKPFLSEDTRKKIMVLGANWKEVLLKHISPDQVPVEYGGTMTDPDGNPKCKSKINYGGDIPRKYYVRDQVK | significant increase | 476.9 | 89.61 | 557.03 | 97.93 | 166.62 | 226.51 | hardly appeared | 7.65 | 0.82 | 1.4 |  | significantly increased | about 23 fold
